{
  "source": "patent US9822156B2",
  "about": "“Amyloid beta expression constructs and uses therefor” (Whitehead Institute for Biomedical Research, priority 2014, dated 2017)",
  "key": {"293T cells": {"system": "293T cells", "assay": "TOXILIGHT cytotoxicity assay in stable doxycycline-inducible poly-Aβ 293T cell lines", "format": "cell-based", "settings": "72-96 hours following doxycycline induction", "text": "Similar to the poly-Aβ (Aβ40 or Aβ42_1X/4X/6X/8X) expression constructs in yeast (see Example 1), a poly-Aβ toxicity model was developed in mammalian cells. Stable cell lines with chromosomally-integrated tetracycline (doxycycline)-inducible […] transgenes (Aβ42-4X, Aβ42-6X, Aβ40-4X, Aβ40-6X and Aβ42-Arctic-4X) linked to an N-terminal insulin signal peptide were generated (FIGS. 13A-13B). These expression constructs were generated using the pLix402 lentiviral plasmid (FIG. 12). The poly-Aβ constructs were individually transfected into 293T cells along with the lentiviral packaging plasmid psPAX and the viral envelope-expressing plasmid mMD2.G using LIPOFECTAMINE® 2000 (Invitrogen) transfection reagent to generate lentivirus containing the poly-Aβ transgene. The virus was harvested from the supernatant of transfected 293T cells 2 and 3 days post-transfection and subsequently purified and concentrated using the LENTI-X™ Maxi Purification kit (Clontech) according to the manufacturer's instructions.\nTo generate stable cells harboring the expression transgene for the poly-Aβ constructs, 293T cells were infected using POLYBRENE® infection reagent (Sigma Aldrich), which is used to introduce retroviral vectors into mammalian cells. Infected cells were then selected using puromycin (2-10 μg/ml). Infected cells harboring the transgene survive this selection pressure whereas the control cells without the transgene die in 2-3 days. Aliquots of the selected cells were frozen in liquid nitrogen or maintained and propagated for further applications.\nExpression of Aβ peptide from these stable cell lines was measured in the culture supernatant 72-96 hours following doxycycline induction (FIG. 13D). Toxicity was measured 72-96 hours following doxycycline induction using a TOXILIGHT™ cytotoxicity assay (Lonza) as described in Example 2."}, "Yeast cells": {"system": "Yeast cells", "assay": "Yeast growth spotting assay of Aβ expression constructs on glucose or galactose media", "format": "cell-based", "settings": "galactose-induced expression from 2μ high-copy plasmid pAG425Gal", "text": "The Aβ sequence was codon optimized for expression in yeast. The Aβ expression construct consists of attB Gateway flanking regions at the 5′ and 3′ ends (nucleotides […] (SEQ ID NO:84) and […] (SEQ ID NO:85), respectively) for Gateway cloning of MatαPrepro-Aβ42 sequence. The entire construct was synthesized into pUC57-Kan plasmid and cloned into the Gateway entry vector pDONR221. These constructs were then transferred into the pAG425Galexpression vector by Gateway LR cloning (Alberti et al., “A suite of Gateway cloning vectors for high throughput genetic analysis in Saccharomyces cerevisiae,” Yeast 24:913 (2007)). The GAL1 promoter enables expression of Aβ fusion transgenes under galactose-inducible conditions. The vector has an ampicillin resistant gene for amplification of the vector in E. coli and leucine auxotrophic marker (LEU2) for selection of transformed yeast cells on media lacking leucine (FIG. 2).\nYeast cells transformed with either an expression vector containing galactose-inducible green fluorescent protein (GFP) or a galactose-inducible expression plasmid encoding a yeast mating factor alpha signal sequence/human amyloid beta 1-42 (Aβ42) or 1-40 (Aβ40) or scrambled Aβ42 fusion polypeptide were grown on glucose or galactose containing synthetic media and growth was assessed. Transformed cells were selected in medium lacking leucine. Individual transformants were grown overnight in complete synthetic medium (CSM) lacking leucine with 2% raffinose as the carbon source. Cell concentrations (OD600) were adjusted in a 96-well plate to OD 0.5 or 1. Cells were then 5-fold serially diluted and spotted on SD media containing glucose (uninduced) and galactose (induced). Plates were incubated at 30° C. for 2 days (glucose) or 3 to 4 days (galactose)."}, "Rat cortical neurons": {"system": "Rat cortical neurons", "assay": "Fluorescence microscopy of neuronal survival and morphology after lentiviral Aβ infection (GFP live imaging, Map2 staining)", "format": "cell-based", "settings": "for neuronal survival and morphology, GFP live neuron imaging: 21 days after initial infection, identical MOI; for neuronal survival and morphology, Map2 immunostaining: twenty-one days post-infection", "experimental": "Rat cortical neurons were infected with a doxycycline-inducible lentiviral GFP construct. Two days post-infection, the cells were infected again with neuron-specific (synapsin promoter) lentiviral Aβ constructs (i.e., Aβ40, Aβ42, and various mutations). The doubly-infected cells were treated with doxycycline 7 days post-infection to express GFP. After 21 days of the initial infection, live neurons were visualized using fluorescence microscopy to observe the effect of different Aβ variants on neuronal survival and morphology by visualizing neurons expressing GFP in presence of Aβ expressed from the transgenes.\nSimilar observations were also made by immunohistochemical analysis of rat cortical neurons infected with neuron-specific (synapsin promoter) lentiviral Aβ constructs. Twenty-one days post-infection, the neurons were stained with a neuron-specific microtubule-associated protein 2 (Map2) primary antibody (rabbit polyclonal, Millipore) and ALEXA FLUOR® (red fluorophore conjugated) secondary antibody (goat anti-rabbit polyclonal, Life Technologies). Neuronal cells and morphology were visualized to observe the effect of different Aβ mutations using fluorescence microscopy."}, "[1]": {"system": "Rat embryonic cortical neurons", "settings": "lentiviral infection, synapsin promoter, secretory pathway expression", "text": "Rat embryonic cortical neurons were used for expressing Aβ. For generating lentiviral constructs, an expression vector was used with the human synapsin 1 promoter upstream of the inserted insulin signal peptide-Aβ fusion polypeptide transgene (FIG. 9). The encoded fusion polypeptide is processed in the secretory pathway of the neuron, releasing Aβ in the extracellular milieu.\nThe pLV-Aβ constructs along with the psPAX2 packaging vector and pMD2.G envelope vector were transfected in 293T cells using LIPOFECTAMINE® 2000 (Invitrogen) transfection reagent following the manufacture's instruction to generate lentivirus containing the Aβ transgene. The virus was purified using LENTI-X™ Maxi Purification Kit (Clontech) from the supernatant of the transfected 293T cells according to the protocol provided by the manufacturer. Viral titer were determined by using Lentivirus-Associated p24 ELISA Kit (Cell BioLabs).\nRat embryonic cortices were dissected out of embryonic (E18) rat brains, and neurons were enriched in adherent monolayer culture. These cortical neurons were infected with lentiviral preparation harboring an Aβ transgene or a control gene (RFP in the same vector backbone). Infected cultures were harvested to quantify the amount of Aβ in the supernatant and cell lysate by Aβ-specific ELISA 21 days after infection (FIG. 10A). Corresponding cytotoxicity of the infected neurons was measured by quantifying ATP levels using […]™ assay for cell viability (Lonza)."}},
  "data": [
    {"molecule": "AB40-6X: doxycycline-inducible construct, insulin signal peptide and six copies of Aβ40, SEQ ID NO:43", "values": [
      {"measurement": "Aβ peptide-mediated cytotoxic effect (adenylate kinase release), rank order", "setting": "293T cells", "value": "Aβ42-6X≧Aβ42-Arctic-4X≧Aβ42-4X≧AB40-6X≧Aβ40-4X"}
    ]},
    {"molecule": "Aβ40-4X: doxycycline-inducible construct, insulin signal peptide and four copies of Aβ40, SEQ ID NO:41", "values": [
      {"measurement": "Aβ peptide-mediated cytotoxic effect (adenylate kinase release), rank order", "setting": "293T cells", "value": "Aβ42-6X≧Aβ42-Arctic-4X≧Aβ42-4X≧AB40-6X≧Aβ40-4X"}
    ]},
    {"molecule": "Aβ42 (1X): yeast expression construct, mating factor alpha prepro sequence with one copy of Aβ42, SEQ ID NO:51", "values": [
      {"measurement": "toxicity (inhibition of yeast cell growth) upon expression", "setting": "Yeast cells", "value": "not toxic"}
    ]},
    {"molecule": "Aβ42-6X: doxycycline-inducible construct, insulin signal peptide and six copies of Aβ42, SEQ ID NO:39", "values": [
      {"measurement": "Aβ peptide-mediated cytotoxic effect (adenylate kinase release), rank order", "setting": "293T cells", "value": "Aβ42-6X≧Aβ42-Arctic-4X≧Aβ42-4X≧AB40-6X≧Aβ40-4X"}
    ]},
    {"molecule": "Aβ42_I31E: lentiviral construct, insulin signal peptide fused to Aβ42 I31E, SEQ ID NO:21", "values": [
      {"measurement": "neuronal survival and morphology, GFP live neuron imaging", "setting": "Rat cortical neurons", "value": "reduced cytotoxicity and no significant morphological distortions of the neurons and neurites"},
      {"measurement": "neuronal survival and morphology, Map2 immunostaining", "setting": "Rat cortical neurons", "value": "reduced cytotoxicity and had no significant effects on the neuronal morphology"},
      {"measurement": "cytotoxicity (ATP levels)", "setting": "[1]", "value": "less cytotoxic effects compared to either the wild-type human Aβ42 or the Arctic variation of human Aβ42"}
    ]},
    {"molecule": "E22_deletion: yeast construct, four copies of Aβ42 with E22 deleted, SEQ ID NO:79 (protein) MRFPSIFTAVLFAASSALAAPVNTTTEDETAQIPAEAVIGYLDLEGDFDVAVLPFSNSTNNGLLFINTTIASIAAKEEGVSLDKREAEADAEFRHDSGYEVHHQKLVFFADVGSNKGAIIGLMVGGVVIAKREAEAEADAEFRHDSGYEVHHQKLVFFADVGSNKGAIIGLMVGGVVIAKREADAEADAEFRHDSGYEVHHQKLVFFADVGSNKGAIIGLMVGGVVIAKREADAEADAEFRHDSGYEVHHQKLVFFADVGSNKGAIIGLMVGGVVIA", "values": [
      {"measurement": "toxicity (inhibition of yeast cell growth) upon expression", "setting": "Yeast cells", "value": "profound toxicity"}
    ]},
    {"molecule": "Arctic: yeast construct, four copies of Aβ42 E22G, SEQ ID NO:75 (protein) MRFPSIFTAVLFAASSALAAPVNTTTEDETAQIPAEAVIGYLDLEGDFDVAVLPFSNSTNNGLLFINTTIASIAAKEEGVSLDKREAEADAEFRHDSGYEVHHQKLVFFAGDVGSNKGAIIGLMVGGVVIAKREAEAEADAEFRHDSGYEVHHQKLVFFAGDVGSNKGAIIGLMVGGVVIAKREADAEADAEFRHDSGYEVHHQKLVFFAGDVGSNKGAIIGLMVGGVVIAKREADAEADAEFRHDSGYEVHHQKLVFFAGDVGSNKGAIIGLMVGGVVIA", "values": [
      {"measurement": "toxicity (inhibition of yeast cell growth) upon expression", "setting": "Yeast cells", "value": "profound toxicity"}
    ]},
    {"molecule": "Dutch: yeast construct, four copies of Aβ42 E22Q, SEQ ID NO:71 (protein) MRFPSIFTAVLFAASSALAAPVNTTTEDETAQIPAEAVIGYLDLEGDFDVAVLPFSNSTNNGLLFINTTIASIAAKEEGVSLDKREAEADAEFRHDSGYEVHHQKLVFFAQDVGSNKGAIIGLMVGGVVIAKREAEAEADAEFRHDSGYEVHHQKLVFFAQDVGSNKGAIIGLMVGGVVIAKREADAEADAEFRHDSGYEVHHQKLVFFAQDVGSNKGAIIGLMVGGVVIAKREADAEADAEFRHDSGYEVHHQKLVFFAQDVGSNKGAIIGLMVGGVVIA", "values": [
      {"measurement": "toxicity (inhibition of yeast cell growth) upon expression", "setting": "Yeast cells", "value": "profound toxicity"}
    ]},
    {"molecule": "Arctic_I31E: yeast construct, four copies of Aβ42 E22G/I31E, SEQ ID NO:77 (protein) MRFPSIFTAVLFAASSALAAPVNTTTEDETAQIPAEAVIGYLDLEGDFDVAVLPFSNSTNNGLLFINTTIASIAAKEEGVSLDKREAEADAEFRHDSGYEVHHQKLVFFAGDVGSNKGAEIGLMVGGVVIAKREAEAEADAEFRHDSGYEVHHQKLVFFAGDVGSNKGAEIGLMVGGVVIAKREADAEADAEFRHDSGYEVHHQKLVFFAGDVGSNKGAEIGLMVGGVVIAKREADAEADAEFRHDSGYEVHHQKLVFFAGDVGSNKGAEIGLMVGGVVIA", "values": [
      {"measurement": "toxicity (inhibition of yeast cell growth) upon expression", "setting": "Yeast cells", "value": "significantly lower amount of toxicity"}
    ]},
    {"molecule": "Aβ42_Arctic (E22G): lentiviral construct, insulin signal peptide fused to Aβ42 E22G, SEQ ID NO:17 (protein) MALWMRLLPLLALLALWGPDPAAADAEFRHDSGYEVHHQKLVFFAGDVGSNKGAIIGLMVGGVVIA", "values": [
      {"measurement": "neuronal survival and morphology, GFP live neuron imaging", "setting": "Rat cortical neurons", "value": "caused neuronal death and adversely affected neurite outgrowth and structures"},
      {"measurement": "neuronal survival and morphology, Map2 immunostaining", "setting": "Rat cortical neurons", "value": "profound cytotoxicity, resulting in massive neuronal loss and distorted neurite structures and outgrowth"},
      {"measurement": "cytotoxicity (ATP levels)", "setting": "[1]", "value": "more toxic effect compared to the wild-type human Aβ42"}
    ]},
    {"molecule": "Aβ42_Arc/I31E: lentiviral construct, insulin signal peptide fused to Aβ42 E22G/I31E, SEQ ID NO:23 (protein) MALWMRLLPLLALLALWGPDPAAADAEFRHDSGYEVHHQKLVFFAGDVGSNKGAEIGLMVGGVVIA", "values": [
      {"measurement": "neuronal survival and morphology, GFP live neuron imaging", "setting": "Rat cortical neurons", "value": "reduced cytotoxicity and no significant morphological distortions of the neurons and neurites"},
      {"measurement": "neuronal survival and morphology, Map2 immunostaining", "setting": "Rat cortical neurons", "value": "reduced cytotoxicity and had no significant effects on the neuronal morphology"},
      {"measurement": "cytotoxicity (ATP levels)", "setting": "[1]", "value": "less cytotoxic effects compared to either the wild-type human Aβ42 or the Arctic variation of human Aβ42"}
    ]}
  ]
}
